Results on six molecules are retold here after publication PMC7797058, “Characterization of the first tetrameric transcription factor of the GntR superfamily with allosteric regulation from the bacterial pathogen Agrobacterium fabrum” (Nucleic Acids Research, 2020).

The target of series [1] is T1, Atu1419 (Agrobacterium fabrum C58) (UniProt A9CJ36).
T1 sequence: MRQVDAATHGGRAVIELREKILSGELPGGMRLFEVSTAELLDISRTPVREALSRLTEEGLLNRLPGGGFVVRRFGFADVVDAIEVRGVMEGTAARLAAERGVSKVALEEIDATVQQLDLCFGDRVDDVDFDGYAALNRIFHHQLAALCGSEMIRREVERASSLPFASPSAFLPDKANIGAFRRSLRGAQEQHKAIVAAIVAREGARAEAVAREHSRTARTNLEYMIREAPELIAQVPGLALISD
In words: EMSA. Conditions: EMSA: 50 mM Tris-HCl pH 8, 150 mM NaCl, 30 nM DNA, 30 min at room temperature; gel 6% or 12% PAGE in TBE at 4 C.

Series [2] deals with T2, Atu1419 (Agrobacterium fabrum, UniProt A9CJ36).
T2 construct: theoretical monomer mass ~26542 Da; homotetramer; co-purified Zn2+
T2 sequence (A9CJ36 1-244): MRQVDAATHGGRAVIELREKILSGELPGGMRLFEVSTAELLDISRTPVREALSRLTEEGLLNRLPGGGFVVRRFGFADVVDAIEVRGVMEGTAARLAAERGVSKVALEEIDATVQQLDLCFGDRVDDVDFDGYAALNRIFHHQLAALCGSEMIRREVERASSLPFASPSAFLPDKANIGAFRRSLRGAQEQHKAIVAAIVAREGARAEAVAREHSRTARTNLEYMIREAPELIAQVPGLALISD
In words: isothermal titration calorimetry. In kind it is binding.

The target in series [3] is T2, Atu1419. Put plainly: differential scanning calorimetry. In kind it is binding. Conditions: 10 µM protein, 100 µM MEF, 1 K/min; absolute Tm with ligand, apo reference Tm 52.6 °C. A general note: Differential scanning calorimetry records heat flow against a reference as temperature is scanned.
Series [4] concerns the molecule itself. In words: SEC + SEC-MALS; apo Atu1419 at 25 uM; Superdex 200 10/300 GL; 50 mM Tris pH 8, 150 mM NaCl.
Series [5] deals with the molecule itself. In words: not stated; oligomeric state of purified Atu1419-H3A; method not given.
Series [6] addresses T3, Atu1419 (Agrobacterium fabrum C58, UniProt A9CJ36 1-244).
T3 sequence: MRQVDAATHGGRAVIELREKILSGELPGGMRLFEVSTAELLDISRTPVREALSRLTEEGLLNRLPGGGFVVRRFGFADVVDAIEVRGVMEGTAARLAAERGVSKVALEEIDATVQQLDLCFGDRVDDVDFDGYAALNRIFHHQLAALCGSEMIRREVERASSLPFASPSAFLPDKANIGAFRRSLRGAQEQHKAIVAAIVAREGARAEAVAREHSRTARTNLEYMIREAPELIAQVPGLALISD
Put plainly: X-ray crystallography; Zn2+, citrate (orientation B); EMSA: 50 mM Tris-HCl pH 8, 150 mM NaCl, 30 nM DNA, 30 min at room temperature; gel 6% or 12% PAGE in TBE at 4 C. To be noted: protein: recombinant; tags: C-terminal 6xHis; chain copies: 4; blunt; self-complementary, 2 strand copies. For orientation: In EMSA bound probe runs differently from free probe, usually more slowly.

Turning to “GGTGGGACTGGTCAAACAACACGGCACCCTCGCGCCATGCGGCCTGCTCGGAACGCCAGTTGCTGAACTCACCGGCGACAACCGGGTATACATACATTCCGATTTTTGAGTTGCGGAGCATTTCAACGGGGTTCGGATATTGCTTCAAAACCTCGGTCAGACTGGAATTTGCCATTGTCATCTCCTCCCT (double strand) [P2-atu1420]”, the binding result in series [1] is listed as “binds”.
With `Nc1nc2c(c(=O)[nH]1)N1CN(c3ccc(C(=O)N[C@@H](CCC(=O)O)C(=O)O)cc3)C[C@H]1CN2` [MEF, N5,N10-methylenetetrahydrofolate], the Kd on Atu1419 [2] is around 20 µM. For the same molecule, at Atu1419 [3], the Tm amounted to 63.5 °C.
Turning to “AAGCGCCTGAACTGATTGCGCAGGTTCCGGGTCTCGCACTCATCAGCGACTAAGCGGCGGAAATCGCTGCAAATCCAGGGGTGGCGCCTTTTGGCGCCGCCTTTATTTTTGTCGACACCCTCCCTGACGCGGTAATTTTGCGCTTGCAATTTATCAAAGCACAGCGTTTCATGTATACATAGATGCGATTGCCAGGGAGGAGATGACAATGGCAAATTCCAGTCTGACCGAGGTTTTGAAGCAATATCCGAACCCCGTTGAAATGCTC (double strand) [Patu1420]”, in series [1], the binding entry is reported as “binds”.

B1: Atu1419 transcriptional regulator (GntR superfamily, VanR group) of Agrobacterium fabrum (natural protein, UniProt A9CJ36 1-244, looked up)
chain: MRQVDAATHGGRAVIELREKILSGELPGGMRLFEVSTAELLDISRTPVREALSRLTEEGLLNRLPGGGFVVRRFGFADVVDAIEVRGVMEGTAARLAAERGVSKVALEEIDATVQQLDLCFGDRVDDVDFDGYAALNRIFHHQLAALCGSEMIRREVERASSLPFASPSAFLPDKANIGAFRRSLRGAQEQHKAIVAAIVAREGARAEAVAREHSRTARTNLEYMIREAPELIAQVPGLALISD
notes: Atu1419, GntR-type transcriptional repressor of the SpG8-1b region, Agrobacterium fabrum C58; theoretical molecular weight about 26 542 Da for a monomer; Co-purifies with one Zn2+ ion per subunit; also called apo Atu1419; wild-type Atu1419; source: E. coli BL21, pET-20b, purified (His-Trap HP, Superdex 200 gel filtration)
Consider B1, for which the “stoichiometry N” value in series [4] was 4.

B2: Atu1419-H3A mutant (H192A, H141A and H214A) (natural protein)
chain: MRQVDAATHGGRAVIELREKILSGELPGGMRLFEVSTAELLDISRTPVREALSRLTEEGLLNRLPGGGFVVRRFGFADVVDAIEVRGVMEGTAARLAAERGVSKVALEEIDATVQQLDLCFGDRVDDVDFDGYAALNRIFAHQLAALCGSEMIRREVERASSLPFASPSAFLPDKANIGAFRRSLRGAQEQAKAIVAAIVAREGARAEAVAREASRTARTNLEYMIREAPELIAQVPGLALISD
notes: The PDB entries are of the wild-type parent; the mutant could not be crystallised; also called triple point mutant; source: E. coli BL21, synthetic gene (Genscript) in pET-20b, expressed and purified as the wild-type protein
Take B2: in series [5], the “stoichiometry N” value came to 4.

B3: 10-mer palindrome (dsDNA)
DNA 1: ATGTATACAT
DNA 2: ATGTATACAT
Take B3: in the series with Atu1419 [6], the binding result was “binds”.

As usually defined, the Kd is the concentration at which binding is half-saturated. As usually defined, the stoichiometry N is a count of units in the complex or per binding partner.
